Where two headings read alike, the source gives them in different places.
What was measured:
human Claudin18.1 [1] = target: T1, human Claudin18.1 (human, UniProt P56856 1-261); experiment: FACS on HEK293T-Claudin18.1 (human) cells
T1 construct: whole, on cells; also called CLDN18.1; HEK293T-Claudin18.1 (human)

human Claudin18.2 [2] = target: T2, human Claudin18.2 (human, UniProt P56856-2 1-261); experiment: cell-based ELISA on fixed HEK293T-Claudin18.2 (human) cells
T2 construct: whole, on cells; also called CLDN18.2; HEK293T-Claudin18.2 (human)
Protocol: (§1) The affinity of the anti-human Claudin18.2 murine monoclonal antibodies was evaluated by cell-based ELISA. The experimental procedures were as follows: The day before the experiment, HEK293T-Claudin18.2 (human) cells were plated in a 96-well plate at 5×10⁴ cells/well. On the day of the experiment, the supernatant was removed, the cells in each well were washed once with 300 μL of PBS, and 100 μL of 4% paraformaldehyde was added to each well for fixation at room temperature for 20 min. Paraformaldehyde was then removed, and the cells in each well were washed twice with 300 μL of PBS. 100 μL of 2% BSA (in PBS) was added to each well, and the mixture was blocked at 37° C. for 2 h. After removing the blocking solution, each antibody subjected to gradient dilution (diluted with 2% BSA (in PBS), starting at […], in a 3-fold gradient, for a total of 11 concentration points) was added to the plate at 100 μL/well, and the mixture was incubated at 37° C. for 2 h. The supernatant was removed, and the cells in each well were washed three times with 300 μL of PBST. 100 μL of an anti-mouse IgG HRP secondary antibody (Jackson, cat #115-035-003) in 2% BSA was added to each well, and the mixture was incubated at 37° C. for 1 h. The secondary antibody was then removed, and the cells in each well were washed five times with 300 μL of PBST, followed by the addition of 100 μL of a TMB substrate (Huzhou InnoReagents Co., Ltd.) per well for color development for 5-20 min. The reaction was stopped by adding 50 μL of 2 N HCl to each well, and OD_{450 nm} values were read on a microplate reader (manufacturer: MD, model: SpectraMax). The values obtained were plotted by GraphPad Prism to calculate the EC₅₀ value.

human Claudin18.1 [3] = target: T1, human Claudin18.1; experiment: FACS on HEK293T-Claudin18.1 (human) cells, antibody 50 µg/mL
Protocol: The specificity of the anti-human Claudin18.2 murine monoclonal antibodies was evaluated by flow cytometry (FACS). The experimental procedures were as follows: The adherent cultured HEK293T-Claudin18.1 (human) cells were digested, collected by centrifugation, and washed three times with pre-cooled PBS. The cells were resuspended in 1% BSA (in PBS) and added to a 96-well pointed bottom plate at 3×10⁵ cells/well, with a volume of 50 μL per well. Each test antibody was diluted to 100 μg/mL with […] (in PBS) and added to the cells at 50 μL/well to achieve a final antibody concentration of 50 μg/mL. The mixture was well mixed and incubated at 4° C. for 1 h. The cells were collected by centrifugation, washed three times with pre-cooled PBS, and resuspended in 50 μL of 1% BSA (in PBS). 1 μL of a fluorescent secondary antibody (Biolegend, cat #405308) was added to each well, and the mixture was well mixed and incubated at 4° C. for 0.5 h. The cells were collected by centrifugation, washed three times with pre-cooled PBS, resuspended in 200 μL of PBS, and assayed on a machine (flow cytometer model: Sony-LE-SA3800GA). The APC fluorescence signal value was obtained, and the gate was set using an isotype control antibody as a negative control to obtain the percentage of positively stained cells (positive rate (0%)).

human Claudin18.2 [4] = target: T2, human Claudin18.2; experiment: cell-based ELISA on HEK293T-Claudin18.2 (human) cells
Protocol: as §1, with “100 μL of an anti-mouse IgG HRP secondary antibody (Jackson, cat #115-035-003) in 2% BSA was added to each well, and the mixture was incubated at 37° C. for 1 h. The secondary antibody was then removed, and the cells in each well were washed five times with 300 μL of PBST, followed by the addition of 100 μL of a TMB substrate (Huzhou InnoReagents Co., Ltd.) per well for color development for 5-20 min.” left out, “The values obtained were plotted by GraphPad Prism to calculate the EC₅₀ value.” left out
The affinity of the anti-human Claudin18.2 humanized monoclonal antibodies was determined by cell-based ELISA. […]

human Claudin18.1 [5] = target: T1, human Claudin18.1; experiment: FACS on HEK293T-Claudin18.1 (human) cells, antibody 50 µg/mL; remark: listed apart in the source
Protocol: The specificity of the anti-human Claudin18.2 humanized monoclonal antibodies was determined by flow cytometry (FACS). The experimental procedures were as follows: HEK293T-Claudin18.1 (human) cells were digested, collected by centrifugation, washed three times with pre-cooled PBS, resuspended in 1% BSA (in PBS), and added to a 96-well pointed bottom plate at 3×10⁵ cells/well. Each test antibody with a final concentration of 50 μg/mL was added, and the mixture was incubated at 4° C. for 1 h. The cells were washed three times with pre-cooled PBS, and then 1 μL of a fluorescent secondary antibody (APC: Biolegend-410712 or PE: BioLegend-410708) was added to each well. The mixture was incubated at 4° C. for 0.5 h, and the cells were washed three times with pre-cooled PBS, then resuspended, and assayed on a flow cytometer. For reference, anti-human Claudin18.1 positive control antibodies (positive control antibody-1 and positive control antibody-2) were included in the experiment.

human Claudin18.2 [6] = target: T2, human Claudin18.2; experiment: cell-based ELISA on L929-Claudin18.2 (human) cells
human Claudin18.2 [7] = target: T2, human Claudin18.2; experiment: cell-based or functional assay
human Claudin18.2 [8] = target: T2, human Claudin18.2; experiment: cell-based ELISA on NUGC4 cells (endogenous human Claudin18.2)
human Claudin18.2 [9] = target: T2, human Claudin18.2; experiment: cell-based ELISA (OD450) on NUGC4 cells (endogenous human Claudin18.2)
human Claudin18.2 [10] = target: T2, human Claudin18.2; experiment: FACS on HEK293T-Claudin18.2 (human) cells
Protocol: The affinity of the anti-human Claudin18.2 humanized antibodies was detected by flow cytometry. The experimental procedures were as follows: The adherent cultured HEK293T-Claudin18.2 (human), NUGC4-Claudin18.2 (human) and NUGC4 cells were digested, collected by centrifugation, and washed three times with pre-cooled PBS. The cells were resuspended in 1% BSA (in PBS) and added to a 96-well pointed bottom plate at 3×10⁵ cells/well, with a volume of 50 μL per well. Each test antibody was diluted with 1% BSA (in PBS) (starting at 100 μg/mL, diluted in a 3-fold gradient, for 10 concentration points). The test antibody subjected to gradient dilution was added to the cells at 50 μL/well, and the mixture was well mixed and incubated at 4° C. for 1 h. The cells were collected by centrifugation, washed three times with pre-cooled PBS, and resuspended in 50 μL of 1% BSA (in PBS). 1 μL of a fluorescent secondary antibody (Biolegend-410712) was added to each well, and the mixture was well mixed and incubated at 4° C. for 0.5 h. The cells were collected by centrifugation, washed three times with pre-cooled PBS, resuspended in 200 μL of PBS, and assayed on a machine.

Row | binding result (human Claudin18.1 [1]) | EC50 (human Claudin18.2 [2]) [µg/mL] | Mean APC fluorescence signal value (human Claudin18.1 [3]) | Positive rate (%) (human Claudin18.1 [3]) | Binder | other results
1 | no binding (tested: 50 µg/mL) | 0.00738 | 160 | 0.98 | 40G11H2 (antibody, V domains shown, Murine monoclonal antibody) VH: EVQLQQSGAELARPGASVKLSCKASGYTFTSYGIRWVKQRTGQGLEWIGEIYPRGGNTYYDEKFKGKATLTADKSSSTAYMGLRSLTSEDSAVYFCARADYGNSFAYWGQGTLVTVSA VL: DIVMTQSPSSLTVTAREKVTMSCKSSQSLLNSGNQKNYLTWYHQKPGQPPKLLIYWASTRESGVPDRFTGSGSGTDFTLTISSVQAEDLAVYFCQNAYFYPFTFGTGTKLEIK | –
2 | no binding (tested: 50 µg/mL) | 0.0105 | 123 | 0.87 | 25C7A5 (antibody, V domains shown, Murine monoclonal antibody purified from hybridoma supernatant) VH: EVQLQQPGAELVKPGTSVKLSCKASGYTFTNYWLHWVRQRPGQGLEWIGMMHPISGSSNNNERFKSKATLTVDKSSTTAYMQLSRMTSEDSAVYYCARGLLSAMDYWGQGTSVTVSS VL: CIVLTQSPKSMSMSVGERVTLSCKASENVKTYVSWYQQRPEQSPKLLIYEASNRYTGVPDRFTGSGSATVFTLTISSVQTEDLANYFCGQTYSFPPTFGSGTKLEIK | –
3 | no binding (tested: 50 µg/mL) | 0.00502 | 111 | 0.16 | 1A6G10 (antibody, V domains shown, Murine monoclonal antibody purified from hybridoma supernatant; also called 1A6G11) VH: QVQLKESGGGLVKPGGSLKLSCAASGFTFSSYAMSWVRQTPEKRLEWVAAIHSNGGSTYNSDTMRDRFTISRDHAKNTLYLQMSSLRSEDTALYYCGRQSFGNALDYWGQGTSVTVSS VL: DIQMTQSPSSLTVTAGEKVTLTCKSSQSLLNSGNQKNYLTWYQQKPGQPPKLLIYWASTRESGVPDRFTGSGSGTFFTLTISSVQAEDLAVYFCQNDYVYPFTFGAGTQLELK | –
4 | – | 0.0024 | 411 | 0 | 32F7A6 (antibody, V domains shown, Murine monoclonal antibody purified from hybridoma supernatant) VH: QIQLVQSGPELRKPGETVKISCKASGYTFTAYTMGWVKQAPGKGLEWMAWINTYSGVPTYAADFKGRFAFSLETSASTAYLLINNLKNEDTATYFCARGVRGNSMDYWGQGTSVTVSS VL: DIVETQSPSSLTVTVGERVTLSCKSSQSLLNSGNQRNYLTWSQQKPGQPPKLLIYWASTRESGVPNRFTGGGSGTYFTLTISSVQVEDLAVYYCQNTYSFPFTFGTGTKLEIK | –
5 | – | – | – | – | 25C7A5-HZ2 (antibody, human IgG1, kappa, Humanized IgG1/kappa) heavy: not shown light: EIVLTQSPATLSLSPGERATLSCKASENVKTYVSWYQQKPGQSPRLLIYEASNRYTGVPARFSGSGSATDFTLTISSLEPEDFAVYFCGQTYSFPPTFGQGTKVEIKRTVAAPSVFIFPPSDEQLKSGTASVVCLLNNFYPREAKVQWKVDNALQSGNSQESVTEQDSKDSTYSLSSTLTLSKADYEKHKVYACEVTHQGLSSPVTKSFNRGEC | EC50 (human Claudin18.2 [4]): 0.0112 µg/mL; Positive rate (%) (human Claudin18.1 [5]): 0.55%; EC50 (human Claudin18.2 [6]): 0.0148 µg/mL; ADCC activity EC50 (Jurkat-NFAT-CD16a luciferase reporter, HEK293T-Claudin18.2 (human) target cells) (human Claudin18.2 [7]): 0.0488 µg/mL; CDC activity EC50 (guinea pig serum killing, CCK8, HEK293T-Claudin18.2 (human) cells) (human Claudin18.2 [7]): 3.28 µg/mL; EC50 (human Claudin18.2 [8]): 0.122 µg/mL; Maximum signal value (human Claudin18.2 [9]): 0.313; EC50 (human Claudin18.2 [10]): 0.293 µg/mL; Maximum signal value (human Claudin18.2 [10]): 119000
6 | no binding (tested: 50 µg/mL) | 0.0123 | 175 | 1.21 | 8H11A10 (antibody, V domains shown, Murine monoclonal antibody) VH: QVQLKESGPVLVAPSQSLSITCTVSGFSLTNYGVHWVRQPPGKGLEWLGVIWSGGRTNYNSALMSRLSISKDNSKSQVFLKMNSLQTDDTAMYYCAKRDGIYGDYWGQGTSVTVSS VL: DIVETQSPSSLTVTAGEKVTMSCKSSQSLLNSGNQKNYLTWYQQKPGQSPKLLIYWASTRESGVPDRFTGSGFGTDFTLTISSVQAEDLAVYYCQNDYIYPLTFGAGTKLELK | –
7 | no binding (tested: 50 µg/mL) | 0.00602 | 222 | 2.16 | 23F2F2 (antibody, V domains shown, Murine monoclonal antibody purified from hybridoma supernatant) VH: QVQLKESGGGLVQPGGSMKLSCAASGFTFSDAWMNWVRQSPEKGLEWVAEIRNKADYHATHYVESVTGRFTISRDDSKSSVYLQMNRLRAEDTGIYYCTRNYGSRFDYWGQGTTLTVSS VL: DIVETQSPSSLTVTAGEKVTMSCKSSQSLLNSGNQRNYLTWYQQKPGHPPKLLIYWASTRESGVPDRFTGSGSGTDFTLTVTSVQAEDLAVYYCQNDYFYPLAFGTGTKLELK | –
8 | no binding (tested: 50 µg/mL) | 0.00814 | 134 | 0.25 | 2D3A11 (antibody, V domains shown, Murine monoclonal antibody purified from hybridoma supernatant) VH: EVQLQQSGPELVKPGASVRMSCKASGYTFTSYVVHWVKQKPGQGLEWIGYINPYNADSKYNERFKGKATLTSDKSSNSAYMELSSLTSEDSAVYYCSRSYYGNSFDVWGAGTTVTVSS VL: DIVMTQSPSSLTVTTGEKVTMSCKSSQSLLNSGNQKNYLTWYQQKPGQSPKLLFFWASTRQSGVPDRFTGSGSGTYFTLTISSVQAEDLAVYYCQNDYYFPFTFGTGTKLEIK | –

Reference: patent publication US20260201030A1 (EVOPOINT BIOSCIENCES, published 2026)
